Data as given in paper doi:10.1101/2020.07.27.223107 (bioRxiv, 2020).

Target: the molecule itself
Assay: SEC-MALLS

Row | Protein | stoichiometry N
1 | full-length human SNED1 (Sushi, nidogen and EGF-like domain-containing protein 1), FLAG-tagged (natural protein, UniProt Q8TER0 25-1413, looked up, N-glycosylated; phosphorylated on serine and threonine residues (sites not mapped)) AVALADFYPFGAERGDAVTPKQDDGGSGLRPLSVPFPFFGAEHSGLYVNNNGIISFLKEVSQFTPVAFPIAKDRCVVAAFWADVDNRRAGDVYYREATDPAMLRRATEDVRHYFPELLDFNATWVFVATWYRVTFFGGSSSSPVNTFQTVLITDGKLSFTIFNYESIVWTTGTHASSGGNATGLGGIAAQAGFNAGDGQRYFSIPGSRTADMAEVETTTNVGVPGRWAFRIDDAQVRVGGCGHTTSVCLALRPCLNGGKCIDDCVTGNPSYTCSCLSGFTGRRCHLDVNECASQPCQNGGTCTHGINSFRCQCPAGFGGPTCETAQSPCDTKECQHGGQCQVENGSAVCVCQAGYTGAACEMDVDDCSPDPCLNGGSCVDLVGNYTCLCAEPFKGLRCETGDHPVPDACLSAPCHNGGTCVDADQGYVCECPEGFMGLDCRERVPDDCECRNGGRCLGANTTLCQCPLGFFGLLCEFEITAMPCNMNTQCPDGGYCMEHGGSYLCVCHTDHNASHSLPSPCDSDPCFNGGSCDAHDDSYTCECPRGFHGKHCEKARPHLCSSGPCRNGGTCKEAGGEYHCSCPYRFTGRHCEIGKPDSCASGPCHNGGTCFHYIGKYKCDCPPGFSGRHCEIAPSPCFRSPCVNGGTCEDRDTDFFCHCQAGYMGRRCQAEVDCGPPEEVKHATLRFNGTRLGAVALYACDRGYSLSAPSRIRVCQPHGVWSEPPQCLEIDECRSQPCLHGGSCQDRVAGYLCLCSTGYEGAHCELERDECRAHPCRNGGSCRNLPGAYVCRCPAGFVGVHCETEVDACDSSPCQHGGRCESGGGAYLCVCPESFFGYHCETVSDPCFSSPCGGRGYCLASNGSHSCTCKVGYTGEDCAKELFPPTALKMERVEESGVSISWNPPNGPAARQMLDGYAVTYVSSDGSYRRTDFVDRTRSSHQLQALAAGRAYNISVFSVKRNSNNKNDISRPAVLLARTRPRPVEGFEVTNVTASTISVQWALHRIRHATVSGVRVSIRHPEALRDQATDVDRSVDRFTFRALLPGKRYTIQLTTLSGLRGEEHPTESLATAPTHVWTRPLPPANLTAARVTATSAHVVWDAPTPGSLLEAYVINVTTSQSTKSRYVPNGKLASYTVRDLLPGRRYQLSVIAVQSTELGPQHSEPAHLYIITSPRDGADRRWHQGGHHPRVLKNRPPPARLPELRLLNDHSAPETPTQPPRFSELVDGRGRVSARFGGSPSKAATVRSQPTASAQLENMEEAPKRVSLALQLPEHGSKDIGNVPGNCSENPCQNGGTCVPGADAHSCDCGPGFKGRRCELACIKVSRPCTRLFSETKAFPVWEGGVCHHVYKRVYRVHQDICFKESCESTSLKKTPNRKQSKSQTLEKS | 2
2 | N-terminal fragment of human SNED1 (amino acids 1 to 260, includes the NIDO domain), FLAG-tagged (domain or fragment, UniProt Q8TER0 25-260, looked up, N-glycosylated; phosphorylated on serine and threonine residues (sites not mapped)) AVALADFYPFGAERGDAVTPKQDDGGSGLRPLSVPFPFFGAEHSGLYVNNNGIISFLKEVSQFTPVAFPIAKDRCVVAAFWADVDNRRAGDVYYREATDPAMLRRATEDVRHYFPELLDFNATWVFVATWYRVTFFGGSSSSPVNTFQTVLITDGKLSFTIFNYESIVWTTGTHASSGGNATGLGGIAAQAGFNAGDGQRYFSIPGSRTADMAEVETTTNVGVPGRWAFRIDDAQV | 2
